From the supplement of paper PMC7877785
± gives the uncertainty stated by the source.

Assay: self-splicing fitness, log relative to wild type (ln ratio); higher = more splicing; Tetrahymena group I intron in knt gene, E. coli kanamycin selection, DiMSum; sequences stand for … in CUCUCU…GGAGGGAAAAGUUAUCAGGCAUGCACCUGGUAGCUAGUCUUUAAACCAAUAGAUUGCAUCGGUUUAAAAGGCAAGACCGUCAAAUUGCGGGAAAGGGGUCAACAGCCGUUCAGUACCAAGUCUCAGGGGAAACUUUGAGAUGGCCUUGCAAAGGGUAUGGUAAUAAGCUGACGGACAUGGUCCUAACCACGCAGCCAAGUCCUAAGUCAACAGAUCUUCUGUUGAUAUGGAUGCAGUUCACAGACUAAAUGUCGGUCGGGGAAGAUGUAUUCUUCUCAUAAGAUAUAGUCGGACCUCUCCUUAAUGGGAGCUAGCGGAUGAAGUGAUGCAACACUGGAGCCGCUGGGAACUAAUUUGUAUGCGAAAGUAUAUUGAUUAGUUUUGGAGUACUCGUGGUCG
Summary of the method: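 A randomised library covering all eight P1ex-region intron nucleotides was built with the intron in the knt kanamycin-resistance gene on pET-22b(+) and held in E. coli BL21(DE3). Cells were grown overnight at 37°C or 30°C on LB agar, with or without 25 μg/mL kanamycin, plus 100 μg/mL carbenicillin, 50 μM IPTG and 0.2% rhamnose, and pooled colonies were amplicon-sequenced on an Illumina HiSeq 2500. DiMSum fitness is the error-weighted combination of wild-type-normalised replicate fold changes, kanamycin versus none.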

Sequence	self-splicing fitness (ln) (30 °C)	self-splicing fitness (ln) (37 °C)
GUCGAGCAAUAUUACGUACA	-1.02 ± 0.15	-0.719 ± 0.17
CCCGAGCAAUAUUACGGACU	-2.57 ± 0.11	-2.19 ± 0.2
AUCCAGCAAUAUUACGAGGU	-3.37 ± 0.23	-2.65 ± 0.22
AGGUAGCAAUAUUACGUCUG	-0.641 ± 0.013	-0.161 ± 0.033
AAGCAGCAAUAUUACGUCGG	-2.24 ± 0.1	-1.7 ± 0.17
UACAAGCAAUAUUACGCUCG	-1.26 ± 0.088	0.16 ± 0.11
AUUGAGCAAUAUUACGCACA	-1.81 ± 0.16	-1.41 ± 0.24
UUCCAGCAAUAUUACGCGUG	-1.43 ± 0.069	-0.516 ± 0.073
AUGUAGCAAUAUUACGUCGC		-2.35 ± 0.46
GACGAGCAAUAUUACGACGA	-0.98 ± 0.11	-1.07 ± 0.12
UCUCAGCAAUAUUACGUACG	-2.45 ± 0.14	-1.26 ± 0.13
AGCGAGCAAUAUUACGCCUA	-1.67 ± 0.18	-1.89 ± 0.2
AUGAAGCAAUAUUACGUAAC	-2.45 ± 0.18	0.328 ± 0.16
CCGCAGCAAUAUUACGCCGA	-2.35 ± 0.19	-1.42 ± 0.14
ACCCAGCAAUAUUACGAGUU	-1.14 ± 0.048	-0.101 ± 0.061
CUGAAGCAAUAUUACGCGGA	-3.45 ± 0.16	-1.7 ± 0.2
UUGAAGCAAUAUUACGGAAC	-3.62 ± 0.32	-2.08 ± 0.3
CACCAGCAAUAUUACGGCCU	-2.6 ± 0.16	-1.93 ± 0.16
CGCAAGCAAUAUUACGCGCC	-3.06 ± 0.21	-1.54 ± 0.17
UCUUAGCAAUAUUACGUGAG	-0.751 ± 0.079	-0.366 ± 0.14
UAGGAGCAAUAUUACGGAUG	-3.62 ± 0.12	-1.69 ± 0.11
GGCUAGCAAUAUUACGUUUG	-2.86 ± 0.11	-1.45 ± 0.12
CGCGAGCAAUAUUACGGAAC	-3.86 ± 0.22	-2.43 ± 0.29
UCGGAGCAAUAUUACGUAAC	-3.51 ± 0.48	
GGCCAGCAAUAUUACGGUUU	-0.995 ± 0.067	-0.401 ± 0.074
AUUUAGCAAUAUUACGAUUU	-0.123 ± 0.12	0.23 ± 0.13

Sequence	self-splicing fitness (ln) (30 °C)	self-splicing fitness (ln) (37 °C)
GUAGAGCAAUAUUACGUUGA	-2.98 ± 0.2	-0.879 ± 0.17
AGGCAGCAAUAUUACGGGCC	-2.17 ± 0.29	-1.52 ± 0.26
ACAGAGCAAUAUUACGCUGA	-3.27 ± 0.19	-1.47 ± 0.16
UCUAAGCAAUAUUACGGCUA	-1.86 ± 0.27	-3.14 ± 0.47
CCUCAGCAAUAUUACGAUUA	-2.62 ± 0.22	-2.23 ± 0.19
UGCUAGCAAUAUUACGAUCU	-0.537 ± 0.11	-0.24 ± 0.1
UAAGAGCAAUAUUACGAGCG	-3.12 ± 0.35	-1.54 ± 0.26
CUCGAGCAAUAUUACGAGCU	-3.85 ± 0.32	
UCUGAGCAAUAUUACGUAGC		-2.04 ± 0.27
ACCAAGCAAUAUUACGUCAA	-3.35 ± 0.17	-3 ± 0.16
CUAUAGCAAUAUUACGUGGU	-3.34 ± 0.23	-2.76 ± 0.2
GCACAGCAAUAUUACGCAAA	-1.72 ± 0.15	-0.898 ± 0.16
GUCGAGCAAUAUUACGGGCU	-2.06 ± 0.23	-1.53 ± 0.28
AACCAGCAAUAUUACGCCUA	-0.252 ± 0.076	-0.557 ± 0.086
CUACAGCAAUAUUACGGUAC	-2.81 ± 0.13	-1.13 ± 0.18
CGUGAGCAAUAUUACGUCCC		-1.09 ± 0.42
CUCCAGCAAUAUUACGCCUA	-2.87 ± 0.2	-1.94 ± 0.2
AUGAAGCAAUAUUACGUUCA	0.00482 ± 0.072	0.318 ± 0.1
CGUGAGCAAUAUUACGACAC	-2.5 ± 0.27	
UGGAAGCAAUAUUACGAAUU		-1.99 ± 0.36
CAACAGCAAUAUUACGGUGU	-3.34 ± 0.12	-2.55 ± 0.14
AGGGAGCAAUAUUACGGUCU	-1.67 ± 0.21	-0.696 ± 0.21
GUUCAGCAAUAUUACGACGC	0.0985 ± 0.12	0.651 ± 0.23
AAGGAGCAAUAUUACGGCGC	-2 ± 0.27	-2.34 ± 0.48
UUUAAGCAAUAUUACGCUAA	-2.34 ± 0.17	-1.09 ± 0.19
AGUGAGCAAUAUUACGUGUA	-3.6 ± 0.28	-2.84 ± 0.23

Sequence	self-splicing fitness (ln) (30 °C)	self-splicing fitness (ln) (37 °C)
CCUGAGCAAUAUUACGCUCA	-1.37 ± 0.28	-1.94 ± 0.38
UGUGAGCAAUAUUACGCGAA	-4.12 ± 0.29	-2.54 ± 0.18
GGCUAGCAAUAUUACGAAAU	-1.67 ± 0.22	0.0518 ± 0.2
UCAUAGCAAUAUUACGUAGU	-3.07 ± 0.21	-2.17 ± 0.28
CAGGAGCAAUAUUACGGGGA	-5.01 ± 0.38	-3.47 ± 0.37
GCUCAGCAAUAUUACGGUUU	-0.112 ± 0.059	0.228 ± 0.073
CGCAAGCAAUAUUACGUGAA	-2.5 ± 0.11	-1.08 ± 0.11
AGCAAGCAAUAUUACGAAGC	-3.28 ± 0.31	
CACCAGCAAUAUUACGGGUA	-0.28 ± 0.045	-0.404 ± 0.055
UUAAAGCAAUAUUACGAUAA	0.359 ± 0.084	0.431 ± 0.1
UGGCAGCAAUAUUACGCCUA	-0.238 ± 0.21	0.697 ± 0.42
GGCAAGCAAUAUUACGAGCA	-0.434 ± 0.13	-0.381 ± 0.14
CGCAAGCAAUAUUACGCUUC	-3.18 ± 0.3	
UAUUAGCAAUAUUACGCGAC	-3.03 ± 0.25	-1.41 ± 0.24
CACAAGCAAUAUUACGCUCC	-1.93 ± 0.16	-1.66 ± 0.22
GGAGAGCAAUAUUACGAUCA	-1.04 ± 0.16	-1.73 ± 0.25
AAGGAGCAAUAUUACGCGAA	-1.94 ± 0.22	-1.39 ± 0.23
AAGGAGCAAUAUUACGACAA	-2.38 ± 0.2	-2.16 ± 0.33
GGUUAGCAAUAUUACGCUUG	-2.32 ± 0.15	-1.82 ± 0.2
GGAGAGCAAUAUUACGGAGU		-2.68 ± 0.31
UACAAGCAAUAUUACGUGUC	-3.91 ± 0.14	-1.15 ± 0.094
UGCUAGCAAUAUUACGUGAG	-3.51 ± 0.18	-1.78 ± 0.21
GACUAGCAAUAUUACGGACA	-0.472 ± 0.1	-0.0878 ± 0.11
GUAAAGCAAUAUUACGUUUC	-2.07 ± 0.16	-1.03 ± 0.22
UCACAGCAAUAUUACGGACA	-1.22 ± 0.099	-0.687 ± 0.099
CCAUAGCAAUAUUACGAUAU	-3.76 ± 0.2	-2.97 ± 0.19
